Consider one molecule from paper PMC4139611, “Differential expression of Homeobox C11 protein in water buffalo Bubalus bubalis and its putative 3D structure”.

The series concerns the target HOXC11 (His-HOXC11) (Bubalus bubalis (water buffalo), UniProt W5XU26 1-304). Put plainly: EMSA; supershift with anti-HOXC11 antibody; 10 mM Tris pH 7.9, 1 mM DTT, 0.1 mM EDTA, 50 mM KCl, 5% glycerol, 30 min at 4 °C; 5% native PAGE in 1x TBE at room temperature. The settings on record: protein: recombinant; tags: N-terminal His6 with thrombin site; label: 32P (alpha-32P-dCTP); 5' overhang 4 nt (GATC) at both ends.

HOXC11 (His-HOXC11), sequence (W5XU26 entry or part of it): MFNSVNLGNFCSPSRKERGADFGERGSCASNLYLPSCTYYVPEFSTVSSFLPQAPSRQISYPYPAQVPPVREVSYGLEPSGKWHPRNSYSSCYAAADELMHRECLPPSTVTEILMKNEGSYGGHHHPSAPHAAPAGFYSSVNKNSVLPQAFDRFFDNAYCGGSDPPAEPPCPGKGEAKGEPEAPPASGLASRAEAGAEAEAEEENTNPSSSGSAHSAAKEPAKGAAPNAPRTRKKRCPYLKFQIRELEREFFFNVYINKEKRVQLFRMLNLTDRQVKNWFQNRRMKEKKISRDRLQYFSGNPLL

B1: CE-LPH1 probe (LPH promoter) (dsDNA)
DNA 1: GATCTTTTACAACCTCAGTTG
DNA 2: GATCCAACTGAGGTTGTAAAA
As to B1, the binding result was “binds”.
